The values that follow come from US20140243208, “COMPOSITIONS AND METHODS FOR SELECTING APTAMERS” (Mediomics, LLC, published 2014).

The chains are these.
B1: TNI-4 (ssDNA)
DNA: CTGTCGTTAGTGAAGGTTGCCAAGCGAACTGCGACAGGGGATCCAGGAGACGGCCCCAACGCCATATCACAGACG
B2: IL-10-6 (ssDNA)
DNA: TAGGTGCTCGACGCTGACCGGGCATTGACACCTTATCGTGGGGTGGGGACTCAGTCGCAGGTCATG
B3: IL-10-3 (ssDNA)
DNA: TAGGTGCTCGACGCTGACCCACGAAAGACACCGCAGTCCCTCCACGCTACTCAGTCGCAGGTCATG
B4: TNI-1 (= TNI-B1, TNI-N1, TNI-MEDI1) (ssDNA)
DNA: CTGTCGTTAGTGAAGGTTGGCAACAACGACCGGGACTAACGGCAGCAGCGACACCGGTAACGCCATATCACAGACG
B5: TNI-3 (ssDNA)
DNA: CTGTCGTTAGTGAAGGTTGGCGGCGGACCGGAACGAGCGGCAGTCGCAGTCGACCCCAACGCCATATCACAGACG
B6: IL-10-1 (ssDNA)
DNA: TAGGTGCTCGACGCTGACCCAGGGCTACACCTTATCCATTCGCGCGGTACTCAGTCGCAGGTCATG
B7: IL-10-4 (ssDNA)
DNA: TAGGTGCTCGACGCTGACCCCCCAGTCACACCTTATGACCGTCCCGCCACTCAGTCGCAGGTCATG
B8: IL-10-5 (ssDNA)
DNA: TAGGTGCTCGACGCTGACCCAGGCACACCTATCCAACTGTCACCGGCCACTCAGTCGCAGGTCATG
B9: IL-10-2 (ssDNA)
DNA: TAGGTGCTCGACGCTGACCCAATCCTGACACACCGTATTAAGCCGCGTACTCAGTCGCAGGTCATG
B10: TNI-2 (ssDNA)
DNA: B4 DNA with C21T
B11: TNI-N3 (= TNI-MEDI2) (ssDNA)
DNA: CTGTCGTTAGTGAAGGTTGGCGCAGGAACCTGAACGTTCGACGGGGTCGGCACCTGTAACGCCATATCACAGACG
B12: TNI-B4 (ssDNA)
DNA: CTGTCGTTAGTGAAGGTTGCCCCGGGAACCGAAACTTGCGACCTGTCGTCACCTTGTAACGCCATATCACAGACG
B13: TNI-CRP3 (ssDNA)
DNA: TAGGTGCTCGACGCTGACCCAGGGGACACCTATCAATCGTCGTGCGGTACTCAGTCGCAGGTCATG
B14: TNI-CRP4 (ssDNA)
DNA: TAGGTGCTCGACGCTGACGGGCGACACCGAGGGGGCTGGGGCGCGGGTACTCAGTCGCAGGTCATG
B15: TNI-CRP2 (ssDNA)
DNA: TAGGTGCTCGACGCTGACCCAGGACGGCACCTTAACCGCGCGTGGGCTACTCAGTCGCAGGTCATG
B16: TNI-B3 (ssDNA)
DNA: B5 DNA with G35T, G46A
B17: TNI-B2 (= TNI-N2) (ssDNA)
DNA: CTGTCGTTAGTGAAGGTTGCAGGCACGCTGCGATATGTCCAGTTGACCCGGTTTGCCAACGCCATATCACAGACG
B18: TNI-CRP1 (ssDNA)
DNA: TAGGTGCTCGACGCTGACCCAGACCCACCAATATATGCCCCGCGGTGTACTCAGTCGCAGGTCATG
B19: TNI-B5 (ssDNA)
DNA: CTGTCGTTAGTGAAGGTTGGCGGCGGACCGGAACGAACGGCAGCAGCGACACCGGTAACGCCATATCACAGACG

Changes are numbered by the printed parent chain.

T3 sequence (P19429 2-210, one chain of several): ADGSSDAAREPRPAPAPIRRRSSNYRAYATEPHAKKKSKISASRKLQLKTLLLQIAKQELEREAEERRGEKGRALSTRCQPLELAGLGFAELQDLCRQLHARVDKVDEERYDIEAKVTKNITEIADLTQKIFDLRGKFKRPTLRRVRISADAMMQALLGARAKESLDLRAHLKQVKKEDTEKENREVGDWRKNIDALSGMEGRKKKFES
Chain of Serum albumin (P02768 25-609, one chain of several): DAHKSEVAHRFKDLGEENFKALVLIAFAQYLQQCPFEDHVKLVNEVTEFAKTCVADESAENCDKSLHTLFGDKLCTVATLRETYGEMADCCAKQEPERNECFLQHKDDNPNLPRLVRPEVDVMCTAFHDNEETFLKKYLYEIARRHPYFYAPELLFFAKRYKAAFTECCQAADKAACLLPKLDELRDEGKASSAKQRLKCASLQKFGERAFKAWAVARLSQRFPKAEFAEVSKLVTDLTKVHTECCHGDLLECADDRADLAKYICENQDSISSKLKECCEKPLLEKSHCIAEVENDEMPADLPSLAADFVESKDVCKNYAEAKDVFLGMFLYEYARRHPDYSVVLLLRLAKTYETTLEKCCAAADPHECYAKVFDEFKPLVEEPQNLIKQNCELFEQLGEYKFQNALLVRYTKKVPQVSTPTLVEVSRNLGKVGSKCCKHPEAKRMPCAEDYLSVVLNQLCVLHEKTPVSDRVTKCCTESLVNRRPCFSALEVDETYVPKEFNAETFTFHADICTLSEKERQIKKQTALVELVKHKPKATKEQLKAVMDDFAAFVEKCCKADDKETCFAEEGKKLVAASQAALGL

One data set concerns the target Serum albumin (Homo sapiens, UniProt P02768 P02768:25-609). The data set can be described thus: ELONA; specificity control. The settings on record: label: hybridized biotin-labeled primer.
For the molecule B1, the binding result is reported as “no binding”.
Still for that read-out and setting: the value for B2 was “no binding”; that for B3 was “no binding”; that for B4 was “no binding”.
Still for that read-out and setting: then B5, with “no binding”.

The target in the next data set is T1, Alpha-fetoprotein (Homo sapiens, UniProt P02771 P02771:19-609).
T1 sequence: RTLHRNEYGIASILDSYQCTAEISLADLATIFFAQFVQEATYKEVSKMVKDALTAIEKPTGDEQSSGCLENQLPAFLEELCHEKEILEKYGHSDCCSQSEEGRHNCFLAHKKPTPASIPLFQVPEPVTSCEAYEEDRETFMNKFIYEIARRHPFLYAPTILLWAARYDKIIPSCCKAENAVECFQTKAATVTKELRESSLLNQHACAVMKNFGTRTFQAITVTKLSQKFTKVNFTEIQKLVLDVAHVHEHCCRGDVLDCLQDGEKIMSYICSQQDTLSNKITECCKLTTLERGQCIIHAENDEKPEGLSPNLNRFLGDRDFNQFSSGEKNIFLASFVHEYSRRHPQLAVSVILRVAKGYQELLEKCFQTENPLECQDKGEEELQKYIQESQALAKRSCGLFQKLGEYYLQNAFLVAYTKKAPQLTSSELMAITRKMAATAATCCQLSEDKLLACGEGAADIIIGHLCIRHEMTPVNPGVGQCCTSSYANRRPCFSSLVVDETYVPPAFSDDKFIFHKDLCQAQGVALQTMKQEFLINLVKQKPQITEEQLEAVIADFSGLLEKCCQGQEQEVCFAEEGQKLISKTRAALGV
The experiment in a line: ELONA; specificity control. The following applies: label: hybridized biotin-labeled primer.
Regarding B1, the binding result is given as “no binding”.
On the same count and under the same terms, the value for B4 was “no binding”.
As for B5, the binding result is recorded as “no binding”.

For the next data set, the target named is T2, C-reactive protein (CRP) (Homo sapiens, UniProt P02741 P02741:19-224).
T2 sequence: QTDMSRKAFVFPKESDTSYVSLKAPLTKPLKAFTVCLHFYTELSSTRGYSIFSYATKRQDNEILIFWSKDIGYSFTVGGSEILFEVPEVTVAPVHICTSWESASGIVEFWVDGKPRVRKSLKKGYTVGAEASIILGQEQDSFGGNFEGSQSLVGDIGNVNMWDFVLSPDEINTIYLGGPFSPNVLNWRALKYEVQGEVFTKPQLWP
The experiment in a line: ELONA; specificity control. The settings on record: chain copies: 5; label: hybridized biotin-labeled primer.
As for B1, the binding result was “no binding”.
The same measure, in the same setting: then B2, with “no binding”; and B3, with “no binding”.
The same measure, in the same setting: the value for B4 was “no binding”; that for B5 was “no binding”.

The next data set concerns the target T3, Troponin I (TnI) (Homo sapiens, UniProt P19429 P19429:2-210). The data set can be described thus: ELONA; specificity control. The settings on record: tags: coated on ELISA plate; label: hybridized biotin-labeled primer.
Consider B2, for which the binding result was “no binding”.
The same measure, in the same setting: then B3, with “no binding”.

The next data set deals with Interleukin-10 (IL-10) (Homo sapiens, UniProt P22301 P22301:19-178). The experiment in a line: ELONA; only IL-10-3 and IL-10-6 of 6 showed potential binding. The following applies: tags: coated on ELISA plate; chain copies: 2; label: hybridized biotin-labeled primer.
Chain of Interleukin-10 (IL-10) (P22301 19-178, one chain of several): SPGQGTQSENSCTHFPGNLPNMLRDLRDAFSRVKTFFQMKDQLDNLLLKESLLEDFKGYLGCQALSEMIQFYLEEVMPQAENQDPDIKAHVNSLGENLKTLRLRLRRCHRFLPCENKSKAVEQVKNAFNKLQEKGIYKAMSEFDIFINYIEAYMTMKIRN
On to B6, for which the binding result is listed as “no binding”.
For the molecule B7, the binding result is on record as “no binding”.
On the same count and under the same terms, the value for B8 was “no binding”; that for B9 was “no binding”.

The target of a further data set is T3, Troponin I (TnI). The experiment in a line: ELONA; very similar affinity to the other TNI aptamers. The settings on record: tags: coated on ELISA plate; label: hybridized biotin-labeled primer.
Regarding B10, the binding result is “binds”.

The target of a further data set is T3, Troponin I (TnI). The data set can be described thus: ELONA; values only in figure. The settings on record: tags: coated on ELISA plate; label: hybridized biotin-labeled primer.
As to B11, the binding result is listed as “binds”.
With B12, the binding result is “binds”.
Same read-out and setting: the value for B13 was “binds”.
Consider B14, for which the binding result is given as “binds”.
Still for that read-out and setting: the value for B15 was “binds”.
Same read-out and setting: then B16, with “binds”; and B17, with “binds”; and B18, with “binds”.
Still for that read-out and setting: the value for B19 was “binds”.
